We go through 15 substances from article PMC7305236.

Experiment [1] deals with ACKR3 C-terminally tagged with SmBiT (human) (UniProt P25106).
Experiment [2] has the same target. This is another data set of the same source.
The target of experiment [3] is delta opioid receptor (DOR) C-terminally tagged with SmBiT (UniProt P41143).
The target in experiment [4] is kappa opioid receptor (KOR) C-terminally tagged with SmBiT (UniProt P41145).
The target of experiment [5] is mu opioid receptor (MOR) C-terminally tagged with SmBiT (UniProt P35372).
The target of the next experiment is mouse ACKR3 (mouse) (UniProt P56485).
The target in experiment [6] is atypical chemokine receptor ACKR3 (formerly CXCR7) (human) (UniProt P25106).
Chain of atypical chemokine receptor ACKR3 (formerly CXCR7) (human) (P25106 whole entry): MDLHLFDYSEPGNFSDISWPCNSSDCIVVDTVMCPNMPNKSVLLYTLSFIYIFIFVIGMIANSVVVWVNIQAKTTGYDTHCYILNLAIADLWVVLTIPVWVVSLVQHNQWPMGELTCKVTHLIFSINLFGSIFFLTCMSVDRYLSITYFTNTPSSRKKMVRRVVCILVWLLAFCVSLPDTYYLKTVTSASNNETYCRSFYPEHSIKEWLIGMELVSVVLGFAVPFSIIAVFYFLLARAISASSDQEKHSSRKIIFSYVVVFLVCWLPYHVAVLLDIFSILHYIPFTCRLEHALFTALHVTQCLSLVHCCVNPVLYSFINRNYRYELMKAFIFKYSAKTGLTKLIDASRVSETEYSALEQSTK

Chain of ACKR3 C-terminally tagged with SmBiT (human) (P25106 whole entry): as above
Chain of mCXCL12 (P40224 22-93): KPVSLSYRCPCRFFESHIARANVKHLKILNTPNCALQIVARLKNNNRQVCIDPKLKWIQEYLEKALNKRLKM
Chain of CXCL12 (P48061 22-93): as the sequence (P40224 22-93) above, with I18V, L70F counted along it
Chain of mouse ACKR3 (mouse) (P56485 whole entry): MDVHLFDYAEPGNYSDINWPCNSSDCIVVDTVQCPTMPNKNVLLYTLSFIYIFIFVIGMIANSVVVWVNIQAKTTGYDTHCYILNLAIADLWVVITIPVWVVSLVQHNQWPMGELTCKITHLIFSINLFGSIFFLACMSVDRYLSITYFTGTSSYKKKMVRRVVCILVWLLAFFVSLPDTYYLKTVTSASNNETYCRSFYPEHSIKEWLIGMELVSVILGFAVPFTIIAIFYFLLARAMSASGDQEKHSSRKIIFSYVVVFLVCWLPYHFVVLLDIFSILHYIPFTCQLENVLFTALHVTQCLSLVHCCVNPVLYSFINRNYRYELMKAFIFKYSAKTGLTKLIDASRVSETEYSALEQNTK

In experiment [1], Dynorphin A 2–17 (peptide) had a β-arrestin-1 recruitment (NanoBiT, U87 cells): EC50 of 2000 nM.

In experiment [2], “CXCL12 (from UniProt P48061 22-93) (ligand)” returned a β-arrestin recruitment to ACKR3 (Fig. 4b): EC50 of 1.2 nM.

For the substance Dynorphin A 1–13 (peptide), the β-arrestin-1 recruitment (NanoBiT, U87 cells): EC50 in experiment [1] was determined as 61.9 nM; in experiment [3] it was 319 nM; in experiment [4], 2.5 nM; in experiment [5], 2000 nM.

In turn, Dynorphin A 2–13 (peptide) returned a β-arrestin-1 recruitment (NanoBiT, U87 cells): EC50 in experiment [1] of 6000 nM.

Turning to Adrenorphin (peptide), the β-arrestin-1 recruitment (NanoBiT, U87 cells): EC50 in experiment [1] amounted to 56.5 nM; in experiment [3], 157 nM; in experiment [4] it was 43.5 nM; in experiment [5], 41.6 nM.

With “mCXCL12 (from UniProt P40224 22-93) (ligand)”, the Supplementary Table 6: EC50 of β-arrestin-1 recruitment to mACKR3, U87 cells with mouse ACKR3 (mouse) was 3.32 nM.

For Leumorphin (peptide), the β-arrestin-1 recruitment (NanoBiT, U87 cells): EC50 in experiment [1] came to 1320 nM; in experiment [3], 3000 nM; in experiment [4] it was 21.4 nM.

The substance “adrenorphin-derived peptide yggfmrrv (Daa)” displayed a Supplementary Table 4: EC50 of β-arrestin-1 recruitment to ACKR3, U87 cells in experiment [6] of over 10000 nM.

Consider Endomorphin-2 (peptide), for which the β-arrestin-1 recruitment (NanoBiT, U87 cells): EC50 in experiment [5] turned out to be 231 nM.

With Dynorphin A (peptide), the β-arrestin-1 recruitment (NanoBiT, U87 cells): EC50 in experiment [1] was 110 nM; in experiment [3], 240 nM; in experiment [5] it was 1500 nM.

With β-endorphin (peptide), the β-arrestin-1 recruitment (NanoBiT, U87 cells): EC50 in experiment [3] came to 441 nM.

For the substance Dynorphin B (peptide), the β-arrestin-1 recruitment (NanoBiT, U87 cells): EC50 in experiment [1] was 727 nM; in experiment [3] it was 158 nM; in experiment [4] it was 10.9 nM; in experiment [5], 2000 nM.

In experiment [1], “[Phe1Ψ(CH2-NH)-gly2]nociceptin-(1–13)-NH2 (peptide)” registered a β-arrestin-1 recruitment (NanoBiT, U87 cells): EC50 of 2970 nM.

Regarding Nociceptin 1–13 (peptide), the β-arrestin-1 recruitment (NanoBiT, U87 cells): EC50 in experiment [1] was determined as 10000 nM.

Regarding Big Dynorphin (peptide), the β-arrestin-1 recruitment (NanoBiT, U87 cells): EC50 in experiment [1] worked out at 108 nM; in experiment [3], 529 nM; in experiment [4], 19.1 nM; in experiment [5], 652 nM.
